Results on six molecules are retold here after patent US20240317847A1 (Bayer, published 2024).

Substitutions are numbered along the chain they refer to.

Experiment [1] has as its target T1, human IL2Ra (Peprotech, Germany, #200-02RC) (human, UniProt P01589 22-240).
T1 construct: Coated on the ELISA plate; also called hIL2Ra; IL-2 receptor alpha
T1 sequence (looked up): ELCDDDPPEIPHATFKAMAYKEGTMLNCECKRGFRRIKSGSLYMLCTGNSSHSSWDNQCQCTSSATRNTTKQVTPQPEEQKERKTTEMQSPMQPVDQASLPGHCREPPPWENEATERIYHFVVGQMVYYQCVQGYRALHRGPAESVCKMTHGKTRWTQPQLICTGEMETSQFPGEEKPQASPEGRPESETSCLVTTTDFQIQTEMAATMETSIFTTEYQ
Kind of experiment: direct binding ELISA on coated IL2Ra. On the technique in general: An ELISA detects its analyte on a solid surface through an enzyme-linked reagent.

Experiment [2] deals with T2, human IL-11 (Invigate, e.g., lot #C121021-19) (human, UniProt P20809 22-199).
T2 construct: Bought protein; also called hIL-11; hIL11
T2 sequence: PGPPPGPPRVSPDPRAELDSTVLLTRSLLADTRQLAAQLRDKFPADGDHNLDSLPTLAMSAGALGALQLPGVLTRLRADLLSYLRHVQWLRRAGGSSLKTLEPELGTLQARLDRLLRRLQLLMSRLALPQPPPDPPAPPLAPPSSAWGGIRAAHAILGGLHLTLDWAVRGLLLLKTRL
Briefly: SPR, Biacore T200, 25 C; antibody captured via anti-mouse Fc, IL-11 as analyte, 1:1 Langmuir fit. As to the method: Antibodies were captured via anti-mouse Fc IgGs (“Mouse antibody capture kit, Order No. BR100383, Cytiva) covalently amine coupled to a Series S CM5 sensor chip (Cytiva). The amine coupling was carried out according to the manufacturer's instructions using 1-ethyl-3-(3-dimethylaminopropyl) carbodiimide hydrochloride (EDC), N-hydroxysuccinimide (NHS) and ethanolamine HCl, pH 8.5 (“Amine Coupling Kit” BR-1000-50, Cytiva.). Human IL-11 (Invigate, e.g., lot #C121021-19), and murine IL-11 (Invigate, e.g., lot #C210819-09) were used as analytes. […] Based on that experiment an IL-11 concentration range was chosen to optimally determine kinetics and affinity of anti-IL-11 antibodies in multicycle kinetics mode. The sensor surface was regenerated with glycine pH 1.7 after each antigen injection. Obtained sensorgrams were double referenced (subtraction of reference flow cell signal and buffer injection) and were fitted to a 1:1 Langmuir binding model to derive kinetic data using the Biacore T200 Evaluation software or the Biacore Insight software.
On the technique in general: Surface plasmon resonance follows binding to a sensor surface in real time, without labels.

The target of experiment [3] is T3, murine IL-11 (mouse, UniProt P47873 22-199).
T3 sequence: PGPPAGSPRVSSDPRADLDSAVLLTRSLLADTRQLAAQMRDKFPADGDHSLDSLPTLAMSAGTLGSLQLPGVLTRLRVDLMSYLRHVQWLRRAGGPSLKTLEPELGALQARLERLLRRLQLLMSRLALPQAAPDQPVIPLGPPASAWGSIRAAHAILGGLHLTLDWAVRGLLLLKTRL
Briefly: cell-based or functional assay.

Experiment [4] addresses T4, human IL-11 (human, UniProt P20809 22-199).
T4 sequence: T2 sequence
Briefly: cell-based or functional assay.

The target in the next experiment is T5, human IL2Ra (human, UniProt P01589 22-240, limits assumed).
T5 construct: coated on the ELISA plate; also called IL-2 receptor alpha
T5 sequence (looked up): T1 sequence (looked up)
Briefly: ELISA on coated IL2Ra, signal ratio to isotype control at 1E-07 M antibody. The method, then: IL2RA (Peprotech, Germany, #200-02RC) was coated at 1 or 0 μg/ml (buffer only control) in 30 μl coating buffer (Candor, #113500) per well on a 384 well microtiter plate (Maxisorb, Nunc, #460518) over night at 4-8° C. After two washes with 50 μl/well washing buffer (PBS+0.05% Tween, pH 7.4), the plates were incubated for two hours at room temperature with 50 μl/well SmartBlock (Candor, #113500). After blocking, the plates were washed three times with washing buffer. Then, a dilution series of the respective antibody (1E-7 [M] down to 2E-13 [M]) in PBS+0.05% Tween, 10% SmartBlock were added in 30 μl to the microtiter plate and incubated for 90 min at room temperature. After three additional washes, 30 μl anti mouse IgG HRP-conjugated antibody (Biotechne, HAF007), diluted 1:1000 in PBS+0.05% Tween (pH 7.4), were added per well and incubated for one hour. After three additional washes, a mixture of Amplex red (Invitrogen, #12222, 10 mM stock solution in DMSO) 1:1000 diluted in PBS and H2O2 (30%, Merck, #107209)) diluted 1:10000 in PBS were added as substrate with 30 μl per well and incubated for 20 min in the dark. Relative fluorescence was measured with a microtiter plate reader at 535/590 nm.
Bispecific antibodies were subjected to the experimental assay procedure described in Example 20. Ratios of the signals generated at an antibody concentration of 1E-07 [M] by the respective bispecific antibody versus those of an isotype control antibody were calculated and are shown in Table E29. The bispecific antibodies show no binding to IL-2 Ra.

The target of experiment [5] is T4, human IL-11. Briefly: Tri-complex ELISA, hIL-11 + mIL-11Ra-Fc + hgp130-Fc, inhibition of complex formation. As to the method: (§1) In the Tri-complex ELISA format IL-11 antibodies are tested for their ability to inhibit the formation of a complex consisting of murine or human gp130-Fc fusion protein, with murine or human IL-11, and a murine IL11RA-Fc fusion protein. The assay format was adapted according to FIG. 18 (a, b), depending on whether murine or human IL-11 IgG antibodies were tested.
(§2) Bispecific antibodies were subjected to the experimental assay procedure described in Example 19 and IC50 [M], respectively efficacy (%) were calculated accordingly.

Experiment [6] has as its target T3, murine IL-11. Briefly: Tri-complex ELISA, mIL-11 + mIL-11Ra-Fc + mgp130-Fc, inhibition of complex formation. The method, then: as §1, §2

B1: TPP-18087 (antibody, mouse IgG1, V domains shown)
VH: EVQLLESGGGLVQPGGSLRLSCAASGFTFSHYDMNWLRQAPGKGLEWVGVISYDGSNKFYADFVKGRFTISRDNSKNTLYLQMNSLRAEDTAVYYCARTPGSHFDYWGQGTLVTVSS
VL: QSVLTQPPSASGTPGQRVTISCSGSSSNIGNNAVNWYQQLPGTAPKLLIYYDDLLPSGVPDRFSGSKSGTSASLAISGLRSEDEADYYCSAWDDSLNGVVFGGGTKLTVLG
notes: mIgG1, Lambda
As for B1, the binding result in experiment [1] was “no binding (tested: 3.3E-7 [M] antibody)”. The molecule further yielded a Kd in experiment [2] of 53 nM.

B2: TPP-18087 (antibody, mouse IgG1, V domains shown)
VH: B1 VH
VL: B1 VL
notes: mIgG1, Lambda
Turning to B2, in the experiment with murine IL-11 [3], the “Efficacy (%), Stat3 reporter gene assay” value was determined as 49% and the “IC50, Stat3 reporter gene assay” value was determined as 330 nM. In addition, in the experiment with human IL-11 [4], the “Efficacy (%), Stat3 reporter gene assay” value was found to be 51.5% and the “IC50, Stat3 reporter gene assay” value amounted to 110 nM.

B3: TPP-19528 (antibody, mouse IgG1, V domains shown)
VH: EVQLLESGGGLVQPGGSLRLSCAASGFTFSIYAMSWVRQAPGKGLEWVSSISDTGDRTYYADSVKGRFTISRDNSKNTLYLQMNSLRAEDTAVYYCARSNWGSLDYWGQGTLVTVSS
VL: B1 VL with N31S, A33Y, N35Y, S90A, N97S, V99R
notes: mIgG1, Lambda
In the case of B3, the binding result in experiment [1] was “no binding (tested: 3.3E-7 [M] antibody)”. In experiment [2], binding was put at a Kd of 11 nM.

B4: TPP-29603 (bispecific antibody, IgG1)
chain 1: QVQLVESGGGVVQPGRSLRLSCAASGFTFSHYDMHWVRQAPGKGLEWVAVISYHGSVKFYADSVKGRFTISRDNSKNTLYLQMNSLRAEDTAVYYCARTPGFHFDYWGQGTLVTVSSGGGGSGGGGSGGGGSQSVLTQPPSASGTPGQRVTISCSGSSSNIGSNYVSWYQQLPGTAPKLLIYYDDLRPSGVPDRFSGSKSGTSASLAISGLRSEDEADYYCSAWDDSLSGVVFGGGTKLTVLGGGGSGGGGSGGGGSGVECPPCPAPPVAGPSVFIFPPKPKDVLTITLTPKVTCVVVDISKDDPEVQFSWFVDDVEVHTAQTQPREEQFNSTFRSVSELPIMHQDWLNGKEFKCRVNSAAFPAPIEKTISKTKGRPKAPQVYTIPPCKEQMAKDKVSLWCMITDFFPEDITVEWQWNGQPAENYKNTQPIMDTDGSYFVYSKLNVQKSNWEAGNTFTCSVLHEGLHNHHTEKSLSHSPGK
chain 2: EVQLLESGGGLVQPGGSLRLSCAASGFTFSSYGMHWVRQAPGKGLEWVAVISYDGSYKYYADSVKGRFTISRDNSKNTLYLQMNSLRAEDTAVYYCAAGVPDYWGQGTLVTVSSGGGGSGGGGSGGGGSQSVLTQPPSASGTPGQRVTISCSGSSSNIGSDYDVHWYQQLPGTAPKLLIYSNEERPSGVPDRFSGSKSGTSASLAISGLRSEDEADYYCSAWDSSLSGPVFGGGTKLTVLGGGGSGGGGSGGGGSGVECPPCPAPPVAGPSVFIFPPKPKDVLTITLTPKVTCVVVDISKDDPEVQFSWFVDDVEVHTAQTQPREEQFNSTFRSVSELPIMHQDWLNGKEFKCRVNSAAFPAPIEKTISKTKGRPKAPQVCTIPPPKEQMAKDKVSLSCAITDFFPEDITVEWQWNGQPAENYKNTQPIMDTDGSYFVVSKLNVQKSNWEAGNTFTCSVLHEGLHNHHTEKSLSHSPGK
notes: scFv-kih-mIgG1; bispecific comprising CDRs of TPP-29528 and TPP-29519
For B4, in the experiment with human IL2Ra, the “Ratio IL-2Ra Binding Signal Antibody/Isotype Control” value was determined as 1.9 ratio. In addition, in the experiment with human IL-11 [5], the “Efficacy (%)” value worked out at 98.5% and the IC50 was 0.696 nM. Further, in the experiment with murine IL-11 [6], the “Efficacy (%)” value is 98.5% and the IC50 stood at 0.17 nM.

B5: TPP-18068 (antibody, mouse IgG1)
heavy: EVQLLESGGGLVQPGGSLRLSCAASGFTFSSYGMHWVRQAPGKGLEWVSVISYDGSYKYYADSVKGRFTISRDNSKNTLYLQMNSLRAEDTAVYYCAAGVPDYWGQGTLVTVSSAKTTPPSVYPLAPGSAAQTNSMVTLGCLVKGYFPEPVTVTWNSGSLSSGVHTFPAVLQSDLYTLSSSVTVPSSTWPSETVTCNVAHPASSTKVDKKIVPRDCGCKPCICTVPEVSSVFIFPPKPKDVLTITLTPKVTCVVVDISKDDPEVQFSWFVDDVEVHTAQTQPREEQFNSTFRSVSELPIMHQDWLNGKEFKCRVNSAAFPAPIEKTISKTKGRPKAPQVYTIPPPKEQMAKDKVSLTCMITDFFPEDITVEWQWNGQPAENYKNTQPIMDTDGSYFVYSKLNVQKSNWEAGNTFTCSVLHEGLHNHHTEKSLSHSPGK
light: QSVLTQPPSASGTPGQRVTISCTGSSSNIGAGYDVHWYQQLPGTAPKLLIYSNNERPSGVPDRFSGSKSGTSASLAISGLRSEDEADYYCAAWDDSLNGPVFGGGTKLTVLGQPKSSPSVTLFPPSSEELETNKATLVCTITDFYPGVVTVDWKVDGTPVTQGMETTQPSKQSNNKYMASSYLTLTARAWERHSSYSCQVTHEGHTVEKSLSRADCS
notes: mIgG1, Lambda
As for B5, in the experiment with murine IL-11 [3], the “Efficacy (%), Stat3 reporter gene assay” value is 84.1% and the “IC50, Stat3 reporter gene assay” value stood at 2.7 nM. In the experiment with human IL-11 [4], the “Efficacy (%), Stat3 reporter gene assay” value worked out at 20.7% and the “IC50, Stat3 reporter gene assay” value came out at 4.8 nM.

B6: TPP-29697 (bispecific antibody, IgG1)
chain 1: QVQLVESGGGVVQPGRSLRLSCAASGFTFSHYDMHWVRQAPGKGLEWVAVISYHGSVKFYADSVKGRFTISRDNSKNTLYLQMNSLRAEDTAVYYCARTPGFHFDYWGQGTLVTVSSGGGGSGGGGSGGGGSQSVLTQPPSASGTPGQRVTISCSGSSSNIGSNYVSWYQQLPGTAPKLLIYYDDLRPSGVPDRFSGSKSGTSASLAISGLRSEDEADYYCSAWDDSLSGVVFGGGTKLTVLGGGGSGGGGSGGGGSGVECPPCPAPPVAGPSVFLFPPKPKDTLMISRTPEVTCVVVGVSHEDPEVKFNWYVDGVEVHNAKTKPREEQYNSTYRVVSVLTVLHQDWLNGKEYKCKVSNKQLPSPIEKTISKAKGQPREPQVYTLPPCRDELTKNQVSLWCLVKGFYPSDIAVEWESNGQPENNYKTTPPVLDSDGSFFLYSKLTVDKSRWQQGNVFSCSVMHEALHNHYTQKSLSLSPGK
chain 2: EVQLLESGGGLVQPGGSLRLSCAASGFTFSSYGMHWVRQAPGKGLEWVAVISYDGSYKYYADSVKGRFTISRDNSKNTLYLQMNSLRAEDTAVYYCAAGVPDYWGQGTLVTVSSGGGGSGGGGSGGGGSQSVLTQPPSASGTPGQRVTISCSGSSSNIGSDYDVHWYQQLPGTAPKLLIYSNEERPSGVPDRFSGSKSGTSASLAISGLRSEDEADYYCSAWDSSLSGPVFGGGTKLTVLGGGGSGGGGSGGGGSGVECPPCPAPPVAGPSVFLFPPKPKDTLMISRTPEVTCVVVGVSHEDPEVKFNWYVDGVEVHNAKTKPREEQYNSTYRVVSVLTVLHQDWLNGKEYKCKVSNKQLPSPIEKTISKAKGQPREPQVCTLPPSRDELTKNQVSLSCAVKGFYPSDIAVEWESNGQPENNYKTTPPVLDSDGSFFLVSKLTVDKSRWQQGNVFSCSVMHEALHNHYTQKSLSLSPGK
notes: scFv-kih-hIgG1 with Fc-silencing mutations; bispecific comprising CDRs of TPP-29528 and TPP-29519
As for B6, in the experiment with human IL2Ra, the “Ratio IL-2Ra Binding Signal Antibody/Isotype Control” value came out at 0.8 ratio. Besides, in the experiment with human IL-11 [5], the “Efficacy (%)” value turned out to be 104% and the IC50 came out at 1.6 nM. Besides, in the experiment with murine IL-11 [6], the “Efficacy (%)” value worked out at 104% and the IC50 was 0.0622 nM.

Broadly, the Kd is the constant that tells how readily two partners part at equilibrium. A lower Kd goes with a tighter complex. The IC50 is the concentration needed to halve the response being measured.
